Among the data in patent US20240360217A1 are PD-L1 (MFI) values, retold here.

Assay [1] concerns the target human PD-L1 on tumor cells (human) (UniProt Q9NZQ7). Put plainly: FACS staining of HCT116 cells with the control antibody; triplicates.
Assay [2] shares this target. As to the kind of experiment: FACS staining of MDA-MB-231 cells with the control antibody; triplicates.

Sequence of human PD-L1 on tumor cells (human) (Q9NZQ7 19-290 limits assumed): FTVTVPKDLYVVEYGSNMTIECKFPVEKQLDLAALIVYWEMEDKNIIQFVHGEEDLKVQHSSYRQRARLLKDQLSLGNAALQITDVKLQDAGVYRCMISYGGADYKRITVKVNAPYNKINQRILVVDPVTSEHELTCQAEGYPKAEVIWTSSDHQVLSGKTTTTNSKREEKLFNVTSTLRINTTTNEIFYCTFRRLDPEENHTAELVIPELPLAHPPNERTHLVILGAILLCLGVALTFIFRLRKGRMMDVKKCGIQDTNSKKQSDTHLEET

With anti-PD-L1 RG7446 MPDL3280A (antibody), the PD-L1 (MFI) in assay [1] was determined as 10900 MFI; in assay [2] it was 74600 MFI.
